How the values were obtained:
[1] = molecular target: T1, HMGB1 C-terminal tail peptide 188-215 (human, biotinylated); assay: ELISA, biotinylated peptides on avidin plate
T1 peptide: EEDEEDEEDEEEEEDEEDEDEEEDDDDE
Method: (§1) The plate was then blocked with 4% milk powder dissolved in PBS at 37° C. for 1 hour. The blocking solution was removed and replaced with human anti-HMG1 antibodies at various concentrations (see FIGS. 5A-B). […] HRP activity was detected with Sureblue HRP substrate (KPL). Plates were read at 450 nm using a Kinetic Microplate Reader (Molecular Devices). […] After washing and blocking with 1% BSA in PBS, the biotinylated peptides were individually added into the avidin coated wells and incubated for 30 min at room temperature. The serial diluted antibody G4, S16 and S6 at the initial concentration at 10 μg/ml were then transferred into the wells followed by adding mouse anti human IgG-HRP conjugate (Pierce). Detection was accomplished by adding 50 μl of tetramethylbenzidine (TMB) substrate (KPL) and the absorbance was read at […].

[2] = molecular target: T2, HMGB1 B-box peptide 108-138 (UniProt P09429 108-138, biotinylated); assay: ELISA, biotinylated peptides on avidin plate
T2 peptide (looked up): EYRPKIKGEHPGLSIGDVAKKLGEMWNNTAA
Method: as §1

[3] = molecular target: T3, HMGB1 in joint lysates of adjuvant induced arthritis (AIA) rats (rat, UniProt P63159 2-215); assay: immunoprecipitation from AIA rat joint lysate, Western blot probed with biotinylated S16 (the method names G4, S6 and isotype control, the legend names S16 for lane 2)
T3 construct: also called HMGB1 from arthritis joints; AA joint lysates
T3 sequence (looked up): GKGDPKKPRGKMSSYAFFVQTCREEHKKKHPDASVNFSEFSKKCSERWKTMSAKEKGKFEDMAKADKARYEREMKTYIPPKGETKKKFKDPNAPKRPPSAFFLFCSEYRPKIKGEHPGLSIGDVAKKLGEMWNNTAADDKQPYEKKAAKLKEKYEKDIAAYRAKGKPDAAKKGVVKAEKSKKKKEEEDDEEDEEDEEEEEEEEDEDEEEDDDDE
Method: Immunoprecipitation and Western Blot: Anti-HMGB1 mAbs (G4 and S6) and isotype control were first biotinylated using EZ-Link Sulfo-NHS-LC-Biotin as instructed by the manufacturer (Pierce). After labeling, the mAb was tested for binding to HMGB1 by ELISA with unlabeled mAbs as controls. The biological samples, joint lysate (30 μl), was mixed with […] biotinylated G4, S6 or isotype control overnight at 4° C. in 300 μl IP buffer [containing 1×PBS, pH 7.2 (Invitrogen), 0.1% Tween 20, 0.5 M sodium chloride, 10 mM sodium butyrate, and a 1:100 dilution of Phosphatase Inhibitor Cocktail I (Sigma)]. For sepsis sera, Tween 20, sodium chloride, sodium butyrate, and Phosphatase Inhibitor Cocktail I were added to 500 μl sera with the same final concentration as IP buffer. Streptavidin Sepharose beads (GE Healthcare) were blocked in 4% BSA-PBS overnight at 4° C., then washed three times with PBS and resuspended in 1×PBS resulting in 50% slurry. The bead slurry (60 μl) was then added to the overnight mAb/sample mixture and mixed for 20 minutes at room temperature. The beads were washed once with PBS, five times with IP Buffer and then washed twice with PBS by spinning at 1000 g for two min. […] The bands were detected by LumiGlo substrate solution (KPL) after washing.

[4] = molecular target: T4, activated HMG1 prepared from LPS stimulated THP-1 cells (human, UniProt P09429 1-215); assay: cell-based or functional assay
T4 sequence (looked up): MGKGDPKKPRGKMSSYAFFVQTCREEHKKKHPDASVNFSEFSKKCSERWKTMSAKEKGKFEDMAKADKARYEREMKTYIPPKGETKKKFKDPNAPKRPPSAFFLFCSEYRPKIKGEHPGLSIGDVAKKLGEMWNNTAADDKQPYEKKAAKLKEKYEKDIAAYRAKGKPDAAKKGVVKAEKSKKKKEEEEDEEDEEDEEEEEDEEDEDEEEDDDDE

B1: anti-HMG1 antibody G4 (antibody, V domains shown)
VH: EVQLLESGGGLVQPGGSLRLSCAASGFTFSWYDMTWVRQAPGKGLEWVSSISPSGGYTKYADSVKGRFTISRDNSKNTLYLQMNSLRAEDTAVYYCTTEFYDYLDVWGKGTTVTVSS
VL: DIQMTQSPGTLSLSPGEGATLSCRASQSVSSTYLAWYQQKPGQAPRLLIYEASKRATGTPARFSGSGSGTDFTLSISSLEPEDFAVYYCQHRHNWPPQWTFGQGTKVEVK
notes: also called ATCC PTA-6258
B1: binds [1]; binds [2].

B2: anti-HMG1 antibody S16 (antibody, V domains shown)
VH: EVQLLESGGGLVQPGGSLRLSCAASGFTFSWYSMLWVRQAPGKGLEWVSYISPSGGFTNYADSVKGRFTISRDNSKNTLYLQMNSLRAEDTAVYYCARWDYNSGWYYDHWGQGTLVTVSS
VL: DIQMTQSPDTLSLSPGERATLSCRASQSVNSRNLAWYQQKPGQAPRLLIYGASTRATGIPDRFSGSVSGTEFTLTISSLQPDDFATYYCQQYNSYFTFGQGTKLEIK
notes: also called ATCC PTA-6259
B2 was tested, and the binding result [3] was “binds” and the “IC50, inhibition of native activated HMG1 stimulated IL-6 release from human PBMC” value [4] was 38.9 nM.

Source: patent US20080311122A1 (AstraZeneca / MedImmune, published 2008)
